Experimental data: paper doi:10.1101/2020.09.24.310243
Like-named read-outs stand apart in the source and are kept apart here. One block for each substance: values may come before it.

Key:
[1] = molecular target: E. coli DNA gyrase A2B2 complex (E. coli) (UniProt P0AES4)
[2] = molecular target: [Alexa488]-QnrB1 (QnrB1-His labelled at the N-terminus with AlexaFluor 488); assay: fluorescence polarisation
[3] = molecular target: [Alexa488]-QnrB1 (QnrB1-His labelled at the N-terminus with AlexaFluor 488); assay: fluorescence polarisation; remark: listed apart in the source
[4] = molecular target: E. coli DNA gyrase subunit B, full-length, untagged (E. coli) (UniProt P0AES6)
[5] = molecular target: E. coli DNA gyrase A2B2 complex (E. coli) (UniProt P0AES4); remark: listed apart in the source
[6] = molecular target: GyrB 43 kDa domain (GyrB43), N-terminal ATPase/transducer domain of E. coli GyrB (E. coli)
[7] = molecular target: E. coli DNA gyrase A2B2 complex (E. coli) (UniProt P0AES4); remark: listed apart in the source

Substance: AlbG with a thrombin-cleavable N-terminal hexahistidine tag (natural protein)
rescue of gyrase supercoiling from 3.3 μM albicidin by AlbG, EC50 [1]: 1200 nM

Substance: E. coli DNA gyrase A2B2 complex (from UniProt P0AES4 1-875; P0AES6 1-804)
Kd [2]: 1780 nM | Kd [3]: 80 nM

Substance: GyrB 43 kDa domain (GyrB43), N-terminal ATPase/transducer domain of E. coli GyrB (domain or fragment)
Kd [2]: 18000 nM | Kd [3]: 1670 nM

Next, values leading:

ATPase activity of the full-length GyrB subunit with QnrB1 (not shown) [4]: < 2 fold | ATP hydrolysis rate of 50 nM gyrase A2B2 in the absence of DNA, with 5 μM QnrB1 [5]: 3 fold | ATPase rate of 4 μM GyrB43 with 5 μM QnrB1 against no QnrB1 [6]: 17 fold | inhibition of gyrase supercoiling by QnrB1 without CFX, IC50 [7]: 11000 nM
Substance: QnrB1 with a C-terminal 6xHis tag (wild type, unlabelled) (natural protein)

KdHi (high-affinity site of the two-site fit), with ADPNP [2]: 0.16 µM | KdHi (high-affinity site of the two-site fit) [3]: 0.06 µM
Substance: E. coli DNA gyrase subunit B, full-length, untagged (from UniProt P0AES6 1-804) (natural protein)
